Bounds are passed on as bounds.

Assay in all cases: AUC; sedimentation velocity, 50,000 rpm, absorbance optics, c(s) analysis; physiological ionic strength, buffers with Ca2+ or EDTA; 0.8-2.2 uM for full-length MASPs; dimer to monomers
The target of experiment [1] is full-length rat MASP-1 zymogen (rat) (UniProt Q8CHN8).
Experiment [2] deals with activated full-length rat MASP-1 (rat).
The target in experiment [3] is rat MASP-1 CUB1-EGF-CUB2 (MASP-1 3D) (rat) (UniProt Q8CHN8).
The target in experiment [4] is activated full-length rat MASP-2 (rat).
In experiment [5] the target is full-length rat MASP-2 zymogen (rat) (UniProt Q9JJS8).

For orientation: Kd means a measure of binding affinity in units of concentration. Low readings indicate a tighter complex, high ones a looser complex. One may read the stoichiometry N as a count of units in the complex or per binding partner. For the substance “full-length rat MASP-1 zymogen (from UniProt Q8CHN8 25-704) (enzyme)”, in experiment [1], the Kd is below 10 nM and the stoichiometry N turned out to be 2.
As to “activated full-length rat MASP-1 (enzyme)”, in experiment [2], the Kd was below 10 nM and the stoichiometry N is 2.
The substance “rat MASP-1 CUB1-EGF-CUB2 (MASP-1 3D) (from UniProt Q8CHN8 61-301) (domain or fragment)” returned a stoichiometry N in experiment [3] of 2.
In experiment [4], “activated full-length rat MASP-2 (enzyme)” showed a Kd below 10 nM and a stoichiometry N of 2.
In experiment [5], “full-length rat MASP-2 zymogen (from UniProt Q9JJS8 20-685) (enzyme)” came in with a Kd below 10 nM and a stoichiometry N of 2.

These data come from PMC5300068.
